# Test results reported in patent publication US20220057381A1.
# What was measured:
# Assay in all cases: cell-based or functional assay
# [1] = biological target: LCAR-B38M CAR (on LCAR-B38M CAR-T drug product cells)
# [2] = biological target: BCMA on multiple myeloma target cells (KILR MM-1R; RPMI8226_Luc) (UniProt Q02223)
# [3] = biological target: KLK2 CAR (on KLK2 CAR-T cells)
substance,measurement,setting,value
Soluble Human BCMA Protein (sBCMA) (from UniProt Q02223 1-54) (receptor),"% CAR-T Killing of KILR MM-1R cells, baseline = CAR-T cells blocked with 50 ug/mL sBCMA lot C108P1-86BF2-NX",[1],42%
same,"% CAR-T Killing of KILR MM-1R cells, baseline = CAR-T cells blocked with 100 ug/mL sBCMA lot C108P1-86BF2-NX",[1],59%
same,"% CAR-T Killing of KILR MM-1R cells, baseline = CAR-T cells blocked with 150 ug/mL sBCMA lot C108P1-86BF2-NX",[1],68%
same,"% CAR-T Killing of KILR MM-1R cells, baseline = CAR-T cells blocked with 200 ug/mL sBCMA lot C108P1-86BF2-NX",[1],74%
same,"% CAR-T Killing of KILR MM-1R cells, baseline = CAR-T cells blocked with 250 ug/mL sBCMA lot C108P1-86BF2-NX",[1],79%
same,"% CAR-T Killing of KILR MM-1R cells, baseline = CAR-T cells blocked with 300 ug/mL sBCMA lot C108P1-86BF2-NX",[1],79%
same,"% CAR-T Killing of KILR MM-1R cells, baseline = CAR-T cells blocked with 400 ug/mL sBCMA lot C108P1-86BF2-NX",[1],62%
same,"% CAR-T Killing, Blocking method, sample PQ-0330 Donor B MOI = 1.5 on K562 Luc (non-B cell) target cells",[1],-46%
same,"% CAR-T Killing, Blocking method, sample PQ-0330 Donor B MOI = 1.5 on RPMI8226 luc target cells",[1],28%
same,"% CAR-T Killing, Blocking method, sample SH19-28 on K562 Luc (non-B cell) target cells",[1],-41%
same,"% CAR-T Killing, Blocking method, sample SH19-28 on RPMI8226 Luc target cells",[1],29%
same,"% Control T Cell Killing (blocked baseline), Blocking method, sample PQ-0330 Donor B MOI = 1.5 on RPMI8226 luc target cells",[1],67%
same,"% Control T Cell Killing (blocked baseline), Blocking method, sample SH19-28 on K562 Luc (non-B cell) target cells",[1],39%
same,"% Control T Cell Killing (blocked baseline), Blocking method, sample SH19-28 on RPMI8226 Luc target cells",[1],53%
LCAR-B38M CAR (on LCAR-B38M CAR-T drug product cells) (receptor),"% Total Killing, sample PQ-0330 Donor B MOI = 1.5 on RPMI8226 luc target cells",[2],77%
same,"% Total Killing, sample SH19-28 on RPMI8226 Luc target cells",[2],67%
soluble human KLK2 protein (sKLK2) with C-terminal His6 tag (from UniProt P20151 25-261),"% CAR-T Killing of KILR LNcaP-KLK2 cells, baseline = SH20-KLK2-004-CAR-T blocked w/ 125 ug/mL KLK2 soluble protein (500 mg/mL)",[3],107%
soluble human KLK2 protein (sKLK2) with C-terminal His6 tag (from UniProt P20151 25-261) (enzyme),"% CAR-T Killing of KILR LNcaP-KLK2 cells, baseline = SH20-KLK2-004-CAR-T blocked w/ 2.5 ug/mL KLK2 soluble protein (500 mg/mL)",[3],49%
same,"% CAR-T Killing of KILR LNcaP-KLK2 cells, baseline = SH20-KLK2-004-CAR-T blocked w/ 12.5 ug/mL KLK2 soluble protein (500 mg/mL)",[3],68%
same,"% CAR-T Killing of KILR LNcaP-KLK2 cells, baseline = SH20-KLK2-004-CAR-T blocked w/ 25 ug/mL KLK2 soluble protein (500 mg/mL)",[3],79%
same,"% CAR-T Killing of KILR LNcaP-KLK2 cells, baseline = SH20-KLK2-004-CAR-T blocked w/ 50 ug/mL KLK2 soluble protein (500 mg/mL)",[3],96%
same,"% CAR-T Killing of KILR LNcaP-KLK2 cells, baseline = SH20-KLK2-004-CAR-T blocked w/ 75 ug/mL KLK2 soluble protein (500 mg/mL)",[3],106%
same,"% CAR-T Killing of KILR LNcaP-KLK2 cells, baseline = SH20-KLK2-004-CAR-T blocked w/ 100 ug/mL KLK2 soluble protein (500 mg/mL)",[3],111%
